Test results published in patent publication US7220837.

How the values were obtained:
[1] = target: membrane-associated tissue factor (Innovin, Dade) (UniProt P13726)
[2] = target: T1, membrane-associated tissue factor (Innovin, Dade), P13726
T1 chain: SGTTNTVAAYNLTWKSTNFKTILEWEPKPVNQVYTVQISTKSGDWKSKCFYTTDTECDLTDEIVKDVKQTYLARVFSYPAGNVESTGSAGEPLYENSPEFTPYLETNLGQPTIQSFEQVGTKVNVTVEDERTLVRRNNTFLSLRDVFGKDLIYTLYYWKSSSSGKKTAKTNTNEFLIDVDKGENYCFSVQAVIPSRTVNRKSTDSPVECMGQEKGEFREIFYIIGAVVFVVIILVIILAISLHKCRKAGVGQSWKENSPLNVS

Factor VII mutant Q11E33I34F35
activity in the competitive assay of Example 6 [1]: displayed similar activity as the Q11E33F34I35 mutant

B1: factor VII mutant Q11E33D36 (protein)
chain: ANAFLEELRQGSLERECKEEQCSFEEAREIFEDADRTKLFWISYSDGDQCASSPCQNGGSCKDQLQSYICFCLPAFEGRNCETHKDDQLICVNENGGCEQYCSDHTGTKRSCRCHEGYSLLADGVSCTPTVEYPCGKIPILEKRNASKPQGRIVGGKVCPKGECPWQVLLLVNGAQLCGGTLINTIWVVSAAHCFDKIKNWRNLIAVLGEHDLSEHDGDEQSRRVAQVIIPSTYVPGTTNHDIALLRLHQPVVLTDHVVPLCLPERTFSERTLAFVRFSLVSGWGQLLDRGATALELMVLNVPRLMTQDCLQQSRKVGDSPNITEYMFCAGYSDGSKDSCKGDSGGPHATHYRGTWYLTGIVSWGQGCATVGHFGVYTRVSQYIEWLQKLMRSEPRPGVLLRAPFP
activity in the competitive assay of Example 6 [2]: had 70% the activity of the Q11E33 mutant

B2: factor VII F5K (protein)
chain: ANAKLEELRPGSLERECKEEQCSFEEAREIFKDAERTKLFWISYSDGDQCASSPCQNGGSCKDQLQSYICFCLPAFEGRNCETHKDDQLICVNENGGCEQYCSDHTGTKRSCRCHEGYSLLADGVSCTPTVEYPCGKIPILEKRNASKPQGRIVGGKVCPKGECPWQVLLLVNGAQLCGGTLINTIWVVSAAHCFDKIKNWRNLIAVLGEHDLSEHDGDEQSRRVAQVIIPSTYVPGTTNHDIALLRLHQPVVLTDHVVPLCLPERTFSERTLAFVRFSLVSGWGQLLDRGATALELMVLNVPRLMTQDCLQQSRKVGDSPNITEYMFCAGYSDGSKDSCKGDSGGPHATHYRGTWYLTGIVSWGQGCATVGHFGVYTRVSQYIEWLQKLMRSEPRPGVLLRAPFP
activity in the competitive assay of Example 6 [2]: 33% of the activity of wild type factor VII
